Source: patent US20220119536A1

Biological target: human VEGF-A (human) (UniProt P15692)
Experiment: cell-based or functional assay

human VEGF-A (human), sequence (P15692 other isoform, or with tags, fused parts or gaps limits assumed): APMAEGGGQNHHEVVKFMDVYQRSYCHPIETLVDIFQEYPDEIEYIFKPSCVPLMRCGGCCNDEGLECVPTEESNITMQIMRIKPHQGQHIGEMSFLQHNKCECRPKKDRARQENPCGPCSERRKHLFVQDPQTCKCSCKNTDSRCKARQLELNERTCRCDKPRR
EYLEA® (aflibercept) (Fc fusion), sequence (chain): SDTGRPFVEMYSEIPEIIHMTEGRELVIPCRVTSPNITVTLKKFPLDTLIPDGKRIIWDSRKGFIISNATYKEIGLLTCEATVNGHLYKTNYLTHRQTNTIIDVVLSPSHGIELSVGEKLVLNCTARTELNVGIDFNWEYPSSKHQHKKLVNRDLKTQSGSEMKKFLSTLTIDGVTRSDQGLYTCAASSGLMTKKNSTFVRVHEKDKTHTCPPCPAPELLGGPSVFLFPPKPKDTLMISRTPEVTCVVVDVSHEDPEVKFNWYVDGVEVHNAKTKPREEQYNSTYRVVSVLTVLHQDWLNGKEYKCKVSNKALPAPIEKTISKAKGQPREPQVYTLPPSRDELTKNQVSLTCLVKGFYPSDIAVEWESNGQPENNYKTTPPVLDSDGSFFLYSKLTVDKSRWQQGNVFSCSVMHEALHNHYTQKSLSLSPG

- ERK1/2 phosphorylation: Bottom plateau (AlphaLISA counts) (AlphaLISA counts): 21700
- ERK1/2 phosphorylation: Top plateau (AlphaLISA counts) (AlphaLISA counts): 109000
- HRMEC proliferation Delta (area under the curve vs. basal): Bottom plateau (arbitrary units) (arbitrary units): 13.3
- HRMEC proliferation Delta (area under the curve vs. basal): IC50 (pM): 171 pM
- HRMEC proliferation Delta (area under the curve vs. basal): LogIC50: -9.77
- HRMEC proliferation Delta (area under the curve vs. basal): Top plateau (arbitrary units) (arbitrary units): 129
- IC50, inhibition of VEGF-induced p38 MAPK phosphorylation: 0.74 nM
- Src phosphorylation (Y419): Bottom plateau (AlphaLISA counts) (AlphaLISA counts): 2210
- Src phosphorylation (Y419): IC50: 0.933 nM
- Src phosphorylation (Y419): LogIC50: -9.37
- Src phosphorylation (Y419): Top plateau (AlphaLISA counts) (AlphaLISA counts): 3420
- concentration for full inhibition of VEGF-induced HRMEC proliferation: > 16 nM
- p38-MAPK phosphorylation (T180/Y182): Bottom plateau (AlphaLISA counts) (AlphaLISA counts): 8890
- p38-MAPK phosphorylation (T180/Y182): IC50: 0.748 nM
- p38-MAPK phosphorylation (T180/Y182): LogIC50: -9.13
- p38-MAPK phosphorylation (T180/Y182): Top plateau (AlphaLISA counts) (AlphaLISA counts): 23100
Substance: EYLEA® (aflibercept) (Fc fusion)
